From PMC3420232, “The Transmembrane Domains of TNF-Related Apoptosis-Inducing Ligand (TRAIL) Receptors 1 and 2 Co-Regulate Apoptotic Signaling Capacity” (PLoS ONE, 2012)

Target: T1, wild-type human TRAILR2 (human, UniProt O14763 56-440)
T1 construct: TRAIL receptor 2 (TRAILR2, DR5), human, wild type; the printed numbers (transmembrane region ending at 231, GIIIG at 212-216, stalk of about 34 aa) fit the long form; also called DR5; TRICK2; source: immortalized mouse fibroblasts (MF), stably transfected, on cells
Experiment: radioligand binding; competition on cells: 4x10^5 murine fibroblasts expressing the (chimeric) TRAIL receptor in PFA (PBS, 2% FCS, 0.002% sodium azide), 83 ng/ml 125I-TRAIL with or without unlabeled recombinant human TRAIL (83-5300 ng/ml), 4 hours on ice; cells spun through phthalate oil; 68 kDa used for TRAIL
Conditions: one partner purified

IC50: 3.5 nM
B1: Flag-tagged recombinant human TRAIL (sTRAIL), unlabeled (ligand, UniProt P50591 95-281, looked up)
chain: TSEETISTVQEKQQNISPLVRERGPQRVAAHITGTRGRSNTLSSPNSKNEKALGRKINSWESSRSGHSFLSNLHLRNGELVIHEKGFYYIYSQTYFRFQEEIKENTKNDKQMVQYIYKYTSYPDPILLMKSARNSCWSKDAEYGLYSIYQGGIFELKENDRIFVSVTNEHLIDMDHEASFFGAFLVG
notes: TRAIL (TNF-related apoptosis-inducing ligand), human, soluble recombinant form (sTRAIL); no removal of the tag is told; also called FLAG-TRAIL; non-labeled TRAIL; source: bought: Axxora (Lörrach, Germany)
